Assay results as given in patent US6576610B1, “Use of a context-dependent functional entity to enhance the efficacy of an agent” (Nuvas, LLC, priority 1999, dated 2003).
Entries after “also recorded” stand apart in the source; their conditions may differ.

How the values were obtained:
Kringle 5 of plasminogen = target: T1, Kringle 5 of plasminogen (Homo sapiens, UniProt P00747); conditions: Chang et al. 1998; read-out: binding to kringle 5 of plasminogen; cited from earlier work
T1 sequence (P00747 481-560 limits assumed): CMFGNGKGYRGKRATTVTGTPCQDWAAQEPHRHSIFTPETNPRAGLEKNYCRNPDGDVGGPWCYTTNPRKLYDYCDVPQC

factors IX and X = conditions: Rao et al. 1988; cited from earlier work
NV144 = NV144 (UniProt P13726)
TF 1-218 = TF 1-218 (UniProt P13726)
[1] = target: T2, blood coagulation factor VIIa (UniProt P08709 61-466); assay: titration of the amidolytic activity of factor VIIa against protein concentration
T2 sequence (looked up): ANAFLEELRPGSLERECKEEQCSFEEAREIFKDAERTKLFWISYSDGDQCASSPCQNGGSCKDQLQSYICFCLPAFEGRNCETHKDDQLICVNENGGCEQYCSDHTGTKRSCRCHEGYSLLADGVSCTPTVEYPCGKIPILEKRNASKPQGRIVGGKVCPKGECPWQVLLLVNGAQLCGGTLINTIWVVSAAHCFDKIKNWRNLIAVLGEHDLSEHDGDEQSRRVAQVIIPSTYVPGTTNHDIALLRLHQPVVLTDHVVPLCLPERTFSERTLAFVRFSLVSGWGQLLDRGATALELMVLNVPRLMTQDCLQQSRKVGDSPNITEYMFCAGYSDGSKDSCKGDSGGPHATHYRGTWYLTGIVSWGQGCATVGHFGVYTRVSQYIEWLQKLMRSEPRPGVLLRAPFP

[2] = target: T2, blood coagulation factor VIIa; assay: surface plasmon resonance, Biacore 2000
factor X = assay: Linked functional assay: factor Xa generation by protein:VIIa complex incubated with factor X; type: biochemical; conditions: for Relative Proteolytic Activity: factor Xa generation, TF 1-218 = 1.00
[3] = test system: MAT B III breast carcinoma tumors; assay: Syngeneic MAT B III rat breast carcinoma model; type: in vivo, Fisher 344 rats; conditions: NV144 alone
Description: The MAT B III rat breast carcinoma is very malignant and fast-growing and, unlike many animal tumors, metastasizes. In addition, the tumor-bearing host lives sufficiently long to develop metastatic disease from the primary tumor. As such, the MAT-BIII tumor model has similar characteristics to human tumors.
Fisher 344 rats bearing MAT B III breast carcinoma tumors were used for these studies. Experiments were begun when the tumors reached approximately 170-200 mm3 in size (5-9 days; “day 0”). Tumors in saline treated controls grew very rapidly and reach a size of about 35,000 mm^3 at day 7. In the treatment groups, tumor-bearing rats were treated with NV144 or DOXIL (Sequus Pharmaceuticals, Inc.), either alone or in combination. In the clinic, DOXIL generally is administered at about 4 mg/kg.
At the highest dose of DOXIL (9 mg/kg), survival initially appeared to be similar in both groups of rats; however, none of the animals survived beyond day 23 due to the high dose of DOXIL.

factor VIIa = target: T3, factor VIIa (Homo sapiens, UniProt P08709); assay: Surface plasmon resonance (Biacore 2000) binding to factor VIIa; conditions: by surface plasmon resonance and amidolytic titration
T3 sequence (P08709 61-212 limits assumed): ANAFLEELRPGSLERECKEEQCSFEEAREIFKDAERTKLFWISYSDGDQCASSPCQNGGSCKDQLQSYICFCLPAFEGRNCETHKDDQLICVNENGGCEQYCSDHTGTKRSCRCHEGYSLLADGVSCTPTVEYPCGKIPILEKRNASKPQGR
T3 sequence (P08709 213-466 limits assumed): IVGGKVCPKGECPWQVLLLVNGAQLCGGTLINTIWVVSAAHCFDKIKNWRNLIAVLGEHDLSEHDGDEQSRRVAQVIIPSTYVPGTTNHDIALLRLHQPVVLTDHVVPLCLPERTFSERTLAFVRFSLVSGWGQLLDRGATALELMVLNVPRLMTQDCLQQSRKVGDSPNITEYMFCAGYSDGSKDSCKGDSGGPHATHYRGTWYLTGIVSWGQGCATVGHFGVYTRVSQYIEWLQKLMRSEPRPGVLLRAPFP

[4] = test system: C1300 neuroblastoma tumor spheroid; assay: Intravital microscopy of tumor vessels in skinfold chamber; type: in vivo, A/J mouse; conditions: infused over 30 min

NCCCCCCC(=O)O [7-aminoheptanoic acid]
Kd (Kringle 5 of plasminogen): 367000 nM

NCCCCC(=O)O [5-aminopentanoic acid]
Kd (Kringle 5 of plasminogen): 580000 nM

TF: integral transmembrane protein receptor tissue factor, trigger of the coagulation cascade
enhancement of enzymatic activation of substrate factors IX and X on binding of factor VIIa (factors IX and X): ≤ 5,000 fold

blood coagulation factor X
Relative Proteolytic Activity (NV144): 0.86
Relative Proteolytic Activity (TF 1-218): 1

B1: TF 1-218 (receptor, human, UniProt P13726 33-250, looked up)
chain: SGTTNTVAAYNLTWKSTNFKTILEWEPKPVNQVYTVQISTKSGDWKSKCFYTTDTECDLTDEIVKDVKQTYLARVFSYPAGNVESTGSAGEPLYENSPEFTPYLETNLGQPTIQSFEQVGTKVNVTVEDERTLVRRNNTFLSLRDVFGKDLIYTLYYWKSSSSGKKTAKTNTNEFLIDVDKGENYCFSVQAVIPSRTVNRKSTDSPVECMGQEKGEFR
notes: range 1-218; also called isolated truncated TF (tTF) domain alone; tTF
Kd [1]: 4.73 nM
Kd [2]: 3.26 nM
Relative Proteolytic Activity (factor X): 1.00

B2: NV144 (other, human)
chain: PRKLYDGGGGSGGGGSGGGGSTTNTVAAYNLTWKSTNFKTILEWEPKPVNQVYTVQISTKSGDWKSKCFYTTDTECDLTDEIVKDVKQTYLARVFSYPAGNVESTGSAGEPLYENSPEFTPYLETNLGQPTIQSFEQVGTKVNVTVEDERTLVRRNNTFLSLRDVFGKDLIYTLYYWKSSSSGKKTAKTNTNEFLIDVDKGENYCFSVQAVIPSRTVNRKSTDSPVECMG
notes: range 3-211; also called CDFE; context-dependent functional entity
Kd [1]: 4.32 nM
Kd [2]: 3.22 nM

B3: NV144: CDFE fusion polypeptide: truncated human TF domain, (Gly4Ser)3 spacer, plasminogen kringle 5 peptide Pro-Arg-Lys-Leu-Tyr-Asp (protein)
chain: PRKLYDGGGGSGGGGSGGGGSTTNTVAAYNLTWKSTNFKTILEWEPKPVNQVYTVQISTKSGDWKSKCFYTTDTECDLTDEIVKDVKQTYLARVFSYPAGNVESTGSAGEPLYENSPEFTPYLETNLGQPTIQSFEQVGTKVNVTVEDERTLVRRNNTFLSLRDVFGKDLIYTLYYWKSSSSGKKTAKTNTNEFLIDVDKGENYCFSVQAVIPSRTVNRKSTDSPVECMG
anti-tumor activity when administered alone [3]: little or no effect; also recorded: no significant anti-tumor activity
affinity for factor VIIa compared with isolated truncated TF (tTF) domain alone (factor VIIa): comparable
rate of fluid phase factor Xa generation as compared to tTF (factor X): normal rate
Relative Proteolytic Activity (factor X): 0.86
effects on nearby vessels in skin and nearby angiogenic vessels [4]: No similar effects
rate of blood flow in the tumor [4]: general slowing
vascular permeability of tumor vessels ([4]; plasma leakage into extravascular space and hemorrhage): significant and selective changes
